Data published in article PMC4165446.

Columns and labels:
Assay in all cases: other fluorescence titration
[1] = molecular target: FIH-Gln239 → Ala variant (human)
[2] = molecular target: FIH-Gln239 → Asn variant (human)
[3] = molecular target: FIH-Gln239 → Glu variant (human)
[4] = molecular target: FIH-Gln239 → His variant (human)

Binder: DESGLPQLTSYDAEVNAPIQGSRNLLQGEELLRALDQVN [39-mer CTAD peptide (C-terminal activation domain of human HIF1α, HIF1α 788–826, Cys800 → Ala)]
- Kd [1]: 100 µM
- Kd [2]: 98 µM
- Kd [3]: 75 µM
- Kd [4]: 64 µM
